Assay [1] concerns the target CHIKV virus-like particles (strain 37997), produced from C-E3-E2-6K-E1 (chikungunya virus strain 37997). The assay can be described thus: cryo-EM structure.
The target of assay [2] is infectious CHIKV particles (strain 181/25) (chikungunya virus strain 181/25). The assay can be described thus: cryo-EM structure.
The target in assay [3] is CHIKV virus-like particles (strain 37997), produced from C-E3-E2-6K-E1 (chikungunya virus strain 37997). The assay can be described thus: SPR. (Surface plasmon resonance follows binding to a sensor surface in real time, without labels.)

This is an account of results in publication PMC7227486.

“mammalian cell-generated murine Mxra8 (residues 23-336), cleaved from Mxra8-HRV-Fc (from UniProt Q9DBV4 23-336) (domain or fragment)” displayed a stoichiometry N (Mxra8 molecules per virion) in assay [1] of 240. Moreover, in assay [2], the stoichiometry N (Mxra8 proteins per particle) is 60.

On to “recombinant murine Mxra8 (soluble; preparation not stated for this experiment) (from UniProt Q9DBV4 20-340) (domain or fragment)”, for which, in assay [3], the KD, high affinity site (kinetically derived, two-site model) came to 0.084 µM and the KD, lower affinity sites (kinetically derived, two-site model) is 0.27 µM.
